In US20230235058A1 (OXFORD UNIVERSITY INNOVATION, published 2023):

T1: full length cynomolgus BTLA expressed on Jurkat cells (cynomolgus monkey, UniProt Q7Z6A9 31-289 (human entry))
T1 chain: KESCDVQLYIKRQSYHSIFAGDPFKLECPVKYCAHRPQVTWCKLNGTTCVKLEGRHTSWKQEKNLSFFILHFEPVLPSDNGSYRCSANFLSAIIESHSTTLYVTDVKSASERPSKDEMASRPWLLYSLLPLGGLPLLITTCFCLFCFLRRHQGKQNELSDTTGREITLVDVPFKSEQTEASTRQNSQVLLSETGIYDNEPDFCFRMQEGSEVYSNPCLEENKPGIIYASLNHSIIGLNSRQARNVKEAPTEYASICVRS

T2: soluble cynomolgus macaque BTLA extracellular domain (BTLA K31-R151) (cynomolgus macaque)
T2 construct: also called cynomolgus BTLA; cyno BTLA
T2 chain: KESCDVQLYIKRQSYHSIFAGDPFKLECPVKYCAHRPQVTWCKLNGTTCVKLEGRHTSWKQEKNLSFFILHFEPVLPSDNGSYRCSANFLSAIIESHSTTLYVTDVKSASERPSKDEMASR


Legend:
[1] = molecular target: T1, full length cynomolgus BTLA expressed …; assay: cell-based or functional assay
[2] = molecular target: chimeric BTLA of humanised-BTLA mice (human extracellular region, murine transmembrane and signaling … (human; mouse, UniProt Q7TSA3 184-306, limits assumed); assay: cell-based or functional assay
[3] = molecular target: T2, soluble cynomolgus macaque BTLA …; assay: SPR 37C, mAb captured, BTLA ECD analyte;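 also: Anti-BTLA mouse antibodies captured on a sensor chip via polyclonal anti-mouse IgG, isotype control antibody in reference channel, rates fitted after reference and blank subtraction to derive Kd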
[4] = molecular target: T2, soluble cynomolgus macaque BTLA …; assay: SPR (Biacore T200), single cycle kinetics at 37 C, antibody captured on anti-mouse IgG, soluble BTLA extracellular domain as analyte
Method: Mouse antibody capture kit (GE Healthcare) was used to coat a Series S CMS Sensor Chip (GE Healthcare) with polyclonal anti-mouse IgG. Anti-BTLA antibody was then captured onto the biosensor surface and a negative control antibody (clone Mopc21; Biolegend) captured in the reference channel. […] Association and dissociation rates were fitted using BiaEvaluation Software (GE Healthcare) after reference and blank subtractions, and dissociation constants were calculated (FIG. 1b).

E55R = molecular target: T3, E55R (Mus musculus); assay: flow cytometry, GFP-positive transfected HEK-293T cells, fluorochrome-conjugated antibody at 10 ug/ml, Geo-mean relative to wild type;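 also: cells express mutant human BTLA ectodomain fused to murine CD28 transmembrane and cytoplasmic parts, stained 48 h after transfection for 1 h at 4 °C alongside a Live/Dead dye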
T3 construct: transmembrane and intracellular regions; also called BTLA E55R construct
Method: (§1) Constructs encoding the human extracellular region of BTLA with the transmembrane and intracellular regions of murine CD28 were cloned into the bi-cistronic mammalian expression vector pGFP2-n2 (BioSignal Packard Ltd), which also encodes GFP. […] Mock and no-transfection controls were included with each experiment. Cells were harvested at 48 hours and stained with fluorochrome-conjugated anti-BTLA antibody at 10 μg/ml, alongside a Live/Dead marker, in PBS, 0.05% azide, 2% FCS (FACS buffer) for 1 h at 4° C. Cells were washed, pelleted and resuspended in 200 μl FACS buffer before being analysed on a BD FACSCanto flow cytometer. […] For each mutant the Geo-mean of anti-BTLA antibody binding to transfected cells was expressed as a percentage of binding to the wild-type receptor (FIG. 3b). A panel of anti-BTLA antibodies was assessed and any mutation that eliminated binding of all antibodies was excluded from the analysis, on the assumption that such mutations lead to drastic changes in protein folding or expression rather than indicating an antibody epitope.

A64R = molecular target: T4, A64R (Mus musculus); assay: as above
T4 construct: transmembrane and intracellular regions; also called BTLA A64R construct
Method: as §1

H68E = molecular target: T5, H68E (Mus musculus); assay: as above
T5 construct: transmembrane and intracellular regions; also called BTLA H68E construct
Method: as §1

E103R = molecular target: T6, E103R (Mus musculus); assay: as above
T6 construct: transmembrane and intracellular regions; also called BTLA E103R construct
Method: as §1

N108R = molecular target: T7, N108R (Mus musculus); assay: as above
T7 construct: transmembrane and intracellular regions; also called BTLA N108R construct
Method: as §1

Q43R = molecular target: T8, Q43R (Mus musculus); assay: as above
T8 construct: transmembrane and intracellular regions; also called BTLA Q43R construct
Method: as §1

D52R = molecular target: T9, D52R (Mus musculus); assay: as above
T9 construct: transmembrane and intracellular regions; also called BTLA D52R construct
Method: as §1

T8 sequence (Q7Z6A9 31-151 Q43R): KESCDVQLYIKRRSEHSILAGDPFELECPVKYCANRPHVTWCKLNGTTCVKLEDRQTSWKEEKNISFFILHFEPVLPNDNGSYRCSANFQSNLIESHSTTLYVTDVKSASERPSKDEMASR
T6 sequence (Q7Z6A9 31-151 E103R): as the sequence (Q7Z6A9 31-151 Q43R) above, with R13Q, E73R counted along it
chimeric BTLA of humanised-BTLA mice (human extracellular region, murine transmembrane and signaling …, sequence (Q7TSA3 other isoform, or with tags, fused parts or gaps mutant limits assumed): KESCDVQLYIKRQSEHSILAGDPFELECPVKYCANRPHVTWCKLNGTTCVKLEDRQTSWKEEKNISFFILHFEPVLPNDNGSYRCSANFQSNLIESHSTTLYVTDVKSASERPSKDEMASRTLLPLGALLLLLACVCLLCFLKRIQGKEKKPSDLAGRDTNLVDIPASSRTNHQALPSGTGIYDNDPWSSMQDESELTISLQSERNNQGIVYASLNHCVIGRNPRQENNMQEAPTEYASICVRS
T7 sequence (Q7Z6A9 31-151 N108R): as the sequence (Q7Z6A9 31-151 Q43R) above, with R13Q, N78R counted along it

| inhibition of NFkB-GFP reporter, IC50 [1] | inhibition of CD4 T cell proliferation in MLR, IC50 [2] | Kd [3] | koff [4] | kon [4] | binding as % of binding to wild-type BTLA (E55R) | binding as % of binding to wild-type BTLA (A64R) | binding as % of binding to wild-type BTLA (H68E) | binding as % of binding to wild-type BTLA (E103R) | binding as % of binding to wild-type BTLA (N108R) | binding as % of binding to wild-type BTLA (Q43R) | binding as % of binding to wild-type BTLA (D52R) | Kd [4] | Binder |
| --- | --- | --- | --- | --- | --- | --- | --- | --- | --- | --- | --- | --- | --- |
| 0.22 nM | 0.029 nM | 7.89 nM | 0.00627 s⁻¹ | 795000 M⁻¹ s⁻¹ | 52% | 93.5% | 126% | 79% | 107% | 87.9% | 70.2% |  | 2.8.6 (antibody, V domains shown, mouse IgG1k hybridoma antibody; also called clone 2.8.6) VH: QVQLKESGPGLVAPSQSLSITCTVSGFSLTTYGVHWVRQSPGKGLEWLGVMWPGGRTSYNPAPMSRLSISKDNSKSQVFLKMNSLQTDDTAMYYCVRGDYEYDYYAMDYWGQGTSVTVSS VL: QIVLSQSPAILSASPGEKVTMTCRASSSVSYMHWYQQKPGSSPKPWIYATSNLASGVPARFSGSGSGTSYSLTISRMEAEDAATYYCHQWSSNPYTFGGGTKLEIK |
| 0.14 nM | 0.016 nM | 0.99 nM | 0.000952 s⁻¹ | 957000 M⁻¹ s⁻¹ | 60.5% | 148% | 81.3% | 213% | 171% | 55.2% | 129% | 0.995 nM | 11.5.1 (antibody, V domains shown, mouse IgG1k hybridoma antibody) VH: EVQLQESGPSLVKPSQTLSLTCSVTGDSITSAYWNWIRKFPGNKLEYMGYISYSGSTYFNPSLKSRISITRNTSKNQYYLQLNSVTTEDTATYYCARSHYYGYYFDYWGHGTTLTVSS VL: DIVLTQSPASLAVSLGQRATISCRASETIDSYGDSLMHWYQQKAGQPPKLLIYRASNLESGIPARFSGSGSRTDFTLTINPVEADDVATYYCQQTDEDPYTFGGGTKLEIK |
